Each protein was assayed on COC(=O)[C@@H]1[C@H](C(=O)OC)N(Cc2ccccc2)C(=O)N1Cc1ccccc1 (assay: HPLC of biotin monomethyl ester, Michaelis-Menten fit). Conditions: pH 8.0, 0.05 M PBS, 30 °C, substrate 0.1 to 10 mM.
Assay type: biochemical, Microbacterium aurantiacum
Excerpt: HPLC of biotin monomethyl ester, Michaelis-Menten fit on […]01

Protein | Km [µM] | kcat [s⁻¹] | kcat/Km [M⁻¹ s⁻¹]
EstSIT01 (Microbacterium aurantiacum) (protein) MTLFDGITSRIVDTDRLTVNILERAADDPQTPPDRTVVFVHGNVSSALFWQEIMQDLPSDLRAIAVDLRGFGGSEHAPVDATRGVRDFSDDLHATLEALDIPVAHLVGWSMGGGVVMQYALDHPVLSLTLQSPVSPYGFGGTRRDGSRLTDDDAGCGGGGANPDFIQRLIDHDTSDDAQTSPRSVFRAGYVASDYTTDHEDVWVESMLTTSTADGNYPGDAVPSDNWPGFAAGRHGVLNTMAPQYFDVSGIVDLAEKPPILWIHGTADAIVSDASFYDLNYLGQLGIVPGWPGEDVAPAQEMVSQTRDVLGRYAAGGGTVTEVAVEGAGHSAHLERPAVFRHALLEIIGYVGAAADPAPPTEAIIIRSAD | 150 ± 20 | 7.8 ± 0.31 | 51900
EstSIT01 (Microbacterium aurantiacum; E301P/G215A/G293A) (protein) MTLFDGITSRIVDTDRLTVNILERAADDPQTPPDRTVVFVHGNVSSALFWQEIMQDLPSDLRAIAVDLRGFGGSEHAPVDATRGVRDFSDDLHATLEALDIPVAHLVGWSMGGGVVMQYALDHPVLSLTLQSPVSPYGFGGTRRDGSRLTDDDAGCGGGGANPDFIQRLIDHDTSDDAQTSPRSVFRAGYVASDYTTDHEDVWVESMLTTSTADANYPGDAVPSDNWPGFAAGRHGVLNTMAPQYFDVSGIVDLAEKPPILWIHGTADAIVSDASFYDLNYLGQLGIVPGWPAEDVAPAQPMVSQTRDVLGRYAAGGGTVTEVAVEGAGHSAHLERPAVFRHALLEIIGYVGAAADPAPPTEAIIIRSAD | 180 ± 30 | 6.3 ± 0.39 | 34900
EstSIT01 (Microbacterium aurantiacum; E301P) (protein) MTLFDGITSRIVDTDRLTVNILERAADDPQTPPDRTVVFVHGNVSSALFWQEIMQDLPSDLRAIAVDLRGFGGSEHAPVDATRGVRDFSDDLHATLEALDIPVAHLVGWSMGGGVVMQYALDHPVLSLTLQSPVSPYGFGGTRRDGSRLTDDDAGCGGGGANPDFIQRLIDHDTSDDAQTSPRSVFRAGYVASDYTTDHEDVWVESMLTTSTADGNYPGDAVPSDNWPGFAAGRHGVLNTMAPQYFDVSGIVDLAEKPPILWIHGTADAIVSDASFYDLNYLGQLGIVPGWPGEDVAPAQPMVSQTRDVLGRYAAGGGTVTEVAVEGAGHSAHLERPAVFRHALLEIIGYVGAAADPAPPTEAIIIRSAD | 220 ± 30 | 5.1 ± 0.28 | 23200
EstSIT01 (Microbacterium aurantiacum; E301P/G215A) (protein) MTLFDGITSRIVDTDRLTVNILERAADDPQTPPDRTVVFVHGNVSSALFWQEIMQDLPSDLRAIAVDLRGFGGSEHAPVDATRGVRDFSDDLHATLEALDIPVAHLVGWSMGGGVVMQYALDHPVLSLTLQSPVSPYGFGGTRRDGSRLTDDDAGCGGGGANPDFIQRLIDHDTSDDAQTSPRSVFRAGYVASDYTTDHEDVWVESMLTTSTADANYPGDAVPSDNWPGFAAGRHGVLNTMAPQYFDVSGIVDLAEKPPILWIHGTADAIVSDASFYDLNYLGQLGIVPGWPGEDVAPAQPMVSQTRDVLGRYAAGGGTVTEVAVEGAGHSAHLERPAVFRHALLEIIGYVGAAADPAPPTEAIIIRSAD | 210 ± 40 | 5.4 ± 0.37 | 25600
